Data taken from publication PMC4258232 (Cell stem cell, 2014).
Changes are numbered by the printed parent chain. Numbers in names are those of the source. Where two headings read alike, the source gives them in different places.

T1: GST-SET7/9 (full length) (UniProt Q8WTS6 1-366)
T1 sequence (looked up): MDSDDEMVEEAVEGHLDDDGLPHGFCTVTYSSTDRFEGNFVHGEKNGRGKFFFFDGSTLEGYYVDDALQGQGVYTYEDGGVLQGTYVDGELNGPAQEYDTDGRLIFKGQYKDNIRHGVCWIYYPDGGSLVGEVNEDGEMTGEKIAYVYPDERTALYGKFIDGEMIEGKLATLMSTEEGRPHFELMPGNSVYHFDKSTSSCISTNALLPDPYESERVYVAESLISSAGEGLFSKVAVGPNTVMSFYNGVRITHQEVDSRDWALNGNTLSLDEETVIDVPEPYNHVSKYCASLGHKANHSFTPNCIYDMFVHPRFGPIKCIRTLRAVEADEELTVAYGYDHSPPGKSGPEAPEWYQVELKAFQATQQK

B1: 6×HIS-LIN28A (full length) (natural protein, UniProt Q9H9Z2 1-209, looked up)
chain: MGSVSNQQFAGGCAKAAEEAPEEAPEDAARAADEPQLLHGAGICKWFNVRMGFGFLSMTARAGVALDPPVDVFVHQSKLHMEGFRSLKEGEAVEFTFKKSAKGLESIRVTGPGGVFCIGSERRPKGKSMQKRRSKGDRCYNCGGLDHHAKECKLPPQPKKCHFCQSISHMVASCPLKAQQGPSAQGKPTYFREEEEEIHSPTLLPEAQN
B2: 6×HIS-LIN28A-K135R (full length) (natural protein, UniProt Q9H9Z2 1-209, looked up)
chain: B1 chain with K135R
B3: LIN28A carboxyl terminus (amino acids 125-209) (domain or fragment, UniProt Q9H9Z2 125-209, looked up)
chain: KGKSMQKRRSKGDRCYNCGGLDHHAKECKLPPQPKKCHFCQSISHMVASCPLKAQQGPSAQGKPTYFREEEEEIHSPTLLPEAQN

Assays:
GST-SET7/9 (full length) [1] = target: T1, GST-SET7/9 (full length); experiment: pull-down
GST-SET7/9 (full length) [2] = target: T1, GST-SET7/9 (full length); experiment: pull-down; remark: listed apart in the source

Binder | binding result (GST-SET7/9 (full length) [1]) | binding result (GST-SET7/9 (full length) [2])
B1 | binds | 
B2 | binds | 
B3 |  | binds
